One assay deals with T1, vasopressin-1 receptor (Rattus norvegicus, UniProt P30560).
T1 construct: cell membranes prepared from rat liver; from tissue; host or cells: rat liver membranes
Put plainly: vasopressin-1 receptor binding, 3H-vasopressin-1 antagonist, cell membranes from rat liver. The note with it: Table 30, oxytocin ligand library. How it is done: The screening of compounds for vasopressin-1 receptor was performed using cell membranes prepared from rat liver. The assay was essentially performed as described above for the oxytocin receptor assay. In this assay 2-4 nM ^3H-vasopressin-1 antagonist (obtained from Perkin Elemer- NEN Life Sciences) was used as the radiotracer and Arg^8-vasopressin (1 µM final concentration in the assay) was used to determine non-specific binding. The assay was performed in triplicates. Activity profile for the test compounds were generated by their ability to inhibit specific binding of the radiotracer to its receptor.

A further assay deals with T2, oxytocin receptor (Rattus norvegicus, UniProt P70536).
T2 construct: cell membranes prepared from rat uterus; from tissue; host or cells: rat uterus membranes
T2 sequence (P70536 1-388): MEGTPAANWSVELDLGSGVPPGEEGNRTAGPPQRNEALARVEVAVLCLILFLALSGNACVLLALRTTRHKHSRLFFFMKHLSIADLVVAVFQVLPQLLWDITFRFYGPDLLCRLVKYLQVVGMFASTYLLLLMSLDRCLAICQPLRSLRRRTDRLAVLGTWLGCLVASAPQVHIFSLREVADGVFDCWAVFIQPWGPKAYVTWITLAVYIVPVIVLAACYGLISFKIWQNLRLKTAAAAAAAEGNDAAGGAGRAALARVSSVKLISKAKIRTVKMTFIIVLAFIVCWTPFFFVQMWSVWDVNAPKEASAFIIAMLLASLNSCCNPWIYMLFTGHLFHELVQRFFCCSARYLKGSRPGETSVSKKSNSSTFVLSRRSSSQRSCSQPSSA
Nature of the assay: oxytocin receptor binding, 3H-oxytocin, cell membranes from rat uterus. Conditions: for % Inhibition at 1 µM Oxytocin Receptor: Table 30, oxytocin ligand library, rat uterus membranes, 3H-oxytocin; for activity at oxytocin receptor: conclusion from Table 30. How it is done: The screening of metallopeptides for binding to oxytocin receptor was done using cell membranes prepared from rat uterus. […] The membrane preparations (10 - 50 µg/well) were incubated with 412-800 pM ^3H-oxytocin in HEPES Buffer containing 0.2% bovine serum albumin along with a test compound (1 µM final assay concentration) for 2 hours at 4° C. Non-specific binding was determined by addition of 10^-6 M oxytocin instead of the test compound. After incubation, the membranes were filtered and washed three times with ice-cold PBS. The membranes were air-dried and punched directly into scintillation vials. After addition of the scintillation cocktail, the vials were capped and gently shaken for 12 hours to dissolve the radioactivity contained in the filters. The vials were then read for tritium counts in a scintillation counter. Specific binding was determined as the radioactivity in wells containing ^3H-oxytocin alone minus the radioactivity in wells containing 10^-6 M oxytocin. The assay was performed in triplicates. The activity profile for the test compounds were generated by their ability to inhibit specific binding of the radiotracer to its receptor.

Ends that are not written are not given here.

T1 sequence (P30560 whole entry): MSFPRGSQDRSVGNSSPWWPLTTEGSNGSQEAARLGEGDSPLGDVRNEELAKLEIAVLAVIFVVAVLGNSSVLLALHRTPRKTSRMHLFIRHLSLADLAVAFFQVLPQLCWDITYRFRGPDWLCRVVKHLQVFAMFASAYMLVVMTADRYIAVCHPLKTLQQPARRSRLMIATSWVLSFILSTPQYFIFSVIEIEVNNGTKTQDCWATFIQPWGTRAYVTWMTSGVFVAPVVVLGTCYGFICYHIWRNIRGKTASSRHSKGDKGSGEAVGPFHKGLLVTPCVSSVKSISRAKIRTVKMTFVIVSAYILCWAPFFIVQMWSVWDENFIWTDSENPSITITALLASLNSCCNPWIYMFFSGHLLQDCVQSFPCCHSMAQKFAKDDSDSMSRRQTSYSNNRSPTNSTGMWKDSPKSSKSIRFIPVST

The term % Inhibition denotes the share of the control response that was lost under treatment. Higher therefore signals a response far below the control. “Ala-Tyr-Cys-Ile-Gln-Asn-Ala-Pro-Leu-Gly-NH2 (AYCIQNAPLG-NH2; not fully specified (bridges); printed as Ala-Tyr-Cys-Ile-Gln-Asn-Ala-Pro-Leu-Gly-NH2; also: oxorhenium(V) N3S1 metal chelate (X-X-Cys)) [SEQ ID NO:158]”: the “% Inhibition at 1 µM Vasopressin-1 Receptor” value with vasopressin-1 receptor is listed as 1%. For the same substance, in the assay with oxytocin receptor, the “% Inhibition at 1 µM Oxytocin Receptor” value was 6%.
The like results for “Ala-Tyr-Ile-Cys-Gln-Asn-Ala-Pro-Leu-Gly-NH2 (AYICQNAPLG-NH2; not fully specified (bridges); printed as Ala-Tyr-Ile-Cys-Gln-Asn-Ala-Pro-Leu-Gly-NH2; also: oxorhenium(V) N3S1 metal chelate (X-X-Cys)) [SEQ ID NO:157]” were, in that order, 0% and 0%.
As for “Ala-Tyr-Ile-Gln-Asn-Ala-Ala-Cys-Leu-Gly-NH2 (AYIQNAACLG-NH2; not fully specified (bridges); printed as Ala-Tyr-Ile-Gln-Asn-Ala-Ala-Cys-Leu-Gly-NH2; also: oxorhenium(V) N3S1 metal chelate (X-X-Cys)) [SEQ ID NO:152]”, in the assay with vasopressin-1 receptor, the “% Inhibition at 1 µM Vasopressin-1 Receptor” value is listed as 1%. Besides, the “% Inhibition at 1 µM Oxytocin Receptor” value with oxytocin receptor came to 0%.
For “Ala-Tyr-Ile-Gln-Asn-Ala-Ala-Leu-Cys-Gly-NH2 (AYIQNAALCG-NH2; not fully specified (bridges); printed as Ala-Tyr-Ile-Gln-Asn-Ala-Ala-Leu-Cys-Gly-NH2; also: oxorhenium(V) N3S1 metal chelate (X-X-Cys)) [SEQ ID NO:151]”, the “% Inhibition at 1 µM Vasopressin-1 Receptor” value with vasopressin-1 receptor was found to be 0%. Moreover, the “% Inhibition at 1 µM Oxytocin Receptor” value in the assay with oxytocin receptor worked out at 0%.
In the case of “Ala-Tyr-Ile-Gln-Asn-Ala-Ala-Leu-Gly-Cys-NH2 (AYIQNAALGC-NH2; not fully specified (bridges); printed as Ala-Tyr-Ile-Gln-Asn-Ala-Ala-Leu-Gly-Cys-NH2; also: oxorhenium(V) N3S1 metal chelate (X-X-Cys)) [SEQ ID NO:150]”, the “% Inhibition at 1 µM Vasopressin-1 Receptor” value in the assay with vasopressin-1 receptor was 0%. In addition, in the assay with oxytocin receptor, the “% Inhibition at 1 µM Oxytocin Receptor” value is listed as 0%.
Take “Ala-Tyr-Ile-Gln-Asn-Ala-Cys-Ala-Leu-Gly-NH2 (AYIQNACALG-NH2; not fully specified (bridges); printed as Ala-Tyr-Ile-Gln-Asn-Ala-Cys-Ala-Leu-Gly-NH2; also: oxorhenium(V) N3S1 metal chelate (X-X-Cys)) [SEQ ID NO:154]”: the “% Inhibition at 1 µM Vasopressin-1 Receptor” value with vasopressin-1 receptor amounted to 0%. In addition, in the assay with oxytocin receptor, the “% Inhibition at 1 µM Oxytocin Receptor” value is reported as 31% and the “activity at oxytocin receptor” value is “active”.
With “Ala-Tyr-Ile-Gln-Asn-Ala-Cys-Pro-Leu-Gly-NH2 (AYIQNACPLG-NH2; not fully specified (bridges); printed as Ala-Tyr-Ile-Gln-Asn-Ala-Cys-Pro-Leu-Gly-NH2; also: oxorhenium(V) N3S1 metal chelate (X-X-Cys)) [SEQ ID NO:153]”, in the assay with vasopressin-1 receptor, the “% Inhibition at 1 µM Vasopressin-1 Receptor” value is reported as 0%. The “% Inhibition at 1 µM Oxytocin Receptor” value in the assay with oxytocin receptor is 2%.
The like results for “Ala-Tyr-Ile-Gln-Asn-Ala-Pro-Leu-Gly-Cys-NH2 (AYIQNAPLGC-NH2; not fully specified (bridges); printed as Ala-Tyr-Ile-Gln-Asn-Ala-Pro-Leu-Gly-Cys-NH2; also: oxorhenium(V) N3S1 metal chelate (X-X-Cys)) [SEQ ID NO:149]” were, in that order, 0% and 6%.
As for “Ala-Tyr-Ile-Gln-Asn-Cys-Ala-Pro-Leu-Gly-NH2 (AYIQNCAPLG-NH2; not fully specified (bridges); printed as Ala-Tyr-Ile-Gln-Asn-Cys-Ala-Pro-Leu-Gly-NH2; also: oxorhenium(V) N3S1 metal chelate (X-X-Cys)) [SEQ ID NO:155]”, the “% Inhibition at 1 µM Vasopressin-1 Receptor” value in the assay with vasopressin-1 receptor was determined as 0%. The “activity at oxytocin receptor” value in the assay with oxytocin receptor was “maximal activity”.

Values taken from EP1379283B1, “IDENTIFICATION OF TARGET-SPECIFIC FOLDING SITES IN PEPTIDES AND PROTEINS” (Palatin Technologies, Inc., priority 2000, dated 2002).
